Reference: the supplement of paper PMC10065799, “High-throughput profiling of sequence recognition by tyrosine kinases and SH2 domains using bacterial peptide display” (eLife, 2023)

Tests used:
SHP2-C SH2 = test: SH2 binding enrichment of the phosphorylated peptide, bacterial display (enrichment ratio); higher = better substrate or ligand; peptides without Tyr show the background
Grb2 SH2 = Grb2 SH2 (UniProt P62993); test: as above
c-Src SH2 = test: as above
Fes = Fes (UniProt P07332); test: phosphorylation enrichment, bacterial display (enrichment ratio); higher = better substrate or ligand; peptides without Tyr show the background
FGFR1 = FGFR1 (UniProt P11362); test: as above
AncSZ = test: as above
FGFR3 = FGFR3 (UniProt P22607); test: as above
EPHB1 = EPHB1 (UniProt P54762); test: as above
c-Src = test: as above
MERTK = MERTK (UniProt Q12866); test: as above
EPHB2 = EPHB2 (UniProt P29323); test: as above
Hck = Hck (UniProt P08631); test: as above
c-Abl (mouse) = test: as above
Fer (mouse) = test: as above
Fyn = Fyn (UniProt P06241); test: as above
Jak2 = Jak2 (UniProt O60674); test: as above
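Wherever SH2 binding enrichment of the phosphorylated peptide, bacterial display is given: peptide library displayed on the E. coli surface as eCPX fusions, selected cells deep-sequenced, score is each peptide's frequency after selection divided by its frequency in the input.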
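Wherever phosphorylation enrichment, bacterial display is given: 11-residue human phosphosite peptides and single-mutation variants displayed on the E. coli surface, counted by deep sequencing, each peptide's frequency after selection divided by its frequency in the unselected input library; frequency after pTyr selection over input frequency; kinase dosed for 20-30% of maximal phosphorylation in three min.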

Chain of FGFR3 (P22607 whole entry, looked up): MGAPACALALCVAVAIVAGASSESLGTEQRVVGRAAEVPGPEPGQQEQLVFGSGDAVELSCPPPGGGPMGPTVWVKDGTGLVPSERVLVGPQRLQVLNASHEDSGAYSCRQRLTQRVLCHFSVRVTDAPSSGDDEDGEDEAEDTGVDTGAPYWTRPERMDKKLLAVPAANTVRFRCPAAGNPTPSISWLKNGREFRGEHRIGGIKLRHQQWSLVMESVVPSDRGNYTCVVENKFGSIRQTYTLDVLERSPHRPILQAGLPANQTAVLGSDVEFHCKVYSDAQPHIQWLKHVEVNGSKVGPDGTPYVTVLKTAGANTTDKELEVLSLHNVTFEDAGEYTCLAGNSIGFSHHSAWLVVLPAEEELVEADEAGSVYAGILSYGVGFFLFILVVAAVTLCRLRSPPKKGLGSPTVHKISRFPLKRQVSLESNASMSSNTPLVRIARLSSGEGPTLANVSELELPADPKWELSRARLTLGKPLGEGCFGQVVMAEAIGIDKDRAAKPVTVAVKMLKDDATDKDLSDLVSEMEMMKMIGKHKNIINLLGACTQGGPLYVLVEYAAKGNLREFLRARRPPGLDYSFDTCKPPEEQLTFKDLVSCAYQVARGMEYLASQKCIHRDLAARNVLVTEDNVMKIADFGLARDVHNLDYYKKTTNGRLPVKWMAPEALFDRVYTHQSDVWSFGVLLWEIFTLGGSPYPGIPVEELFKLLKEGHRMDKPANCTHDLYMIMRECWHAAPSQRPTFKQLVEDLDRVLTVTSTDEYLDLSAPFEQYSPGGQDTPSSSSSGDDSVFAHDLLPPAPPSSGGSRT
Chain of Jak2 (O60674 whole entry, looked up, the tested form may be a part): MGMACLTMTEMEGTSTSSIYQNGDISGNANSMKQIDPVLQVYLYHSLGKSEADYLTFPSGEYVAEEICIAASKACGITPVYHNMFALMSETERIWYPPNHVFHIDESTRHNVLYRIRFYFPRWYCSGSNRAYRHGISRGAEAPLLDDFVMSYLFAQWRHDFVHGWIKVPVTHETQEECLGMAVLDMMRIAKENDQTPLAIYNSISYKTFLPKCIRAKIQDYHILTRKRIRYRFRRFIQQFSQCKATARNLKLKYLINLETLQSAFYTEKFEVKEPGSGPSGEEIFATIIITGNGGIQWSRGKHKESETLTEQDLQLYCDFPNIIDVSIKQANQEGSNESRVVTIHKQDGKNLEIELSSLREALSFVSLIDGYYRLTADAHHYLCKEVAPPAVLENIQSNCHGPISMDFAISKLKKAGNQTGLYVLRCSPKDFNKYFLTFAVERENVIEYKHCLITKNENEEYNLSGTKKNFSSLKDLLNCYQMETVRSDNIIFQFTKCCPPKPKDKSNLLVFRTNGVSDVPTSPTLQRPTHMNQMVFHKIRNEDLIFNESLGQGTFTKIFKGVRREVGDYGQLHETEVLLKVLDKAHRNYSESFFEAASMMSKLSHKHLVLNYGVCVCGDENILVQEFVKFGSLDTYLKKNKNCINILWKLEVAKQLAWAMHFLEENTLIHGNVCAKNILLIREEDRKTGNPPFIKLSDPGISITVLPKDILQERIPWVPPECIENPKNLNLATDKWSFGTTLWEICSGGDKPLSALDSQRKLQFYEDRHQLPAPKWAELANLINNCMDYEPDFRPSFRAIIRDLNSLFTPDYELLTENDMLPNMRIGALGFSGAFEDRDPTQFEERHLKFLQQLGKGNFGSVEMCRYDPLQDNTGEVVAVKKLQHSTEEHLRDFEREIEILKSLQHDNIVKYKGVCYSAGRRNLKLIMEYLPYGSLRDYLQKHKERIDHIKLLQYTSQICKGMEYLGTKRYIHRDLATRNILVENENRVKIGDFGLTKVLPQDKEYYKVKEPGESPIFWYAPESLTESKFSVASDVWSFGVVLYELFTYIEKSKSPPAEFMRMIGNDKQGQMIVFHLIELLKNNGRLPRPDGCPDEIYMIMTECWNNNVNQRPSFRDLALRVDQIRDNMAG
Chain of EPHB2 (P29323 whole entry, looked up): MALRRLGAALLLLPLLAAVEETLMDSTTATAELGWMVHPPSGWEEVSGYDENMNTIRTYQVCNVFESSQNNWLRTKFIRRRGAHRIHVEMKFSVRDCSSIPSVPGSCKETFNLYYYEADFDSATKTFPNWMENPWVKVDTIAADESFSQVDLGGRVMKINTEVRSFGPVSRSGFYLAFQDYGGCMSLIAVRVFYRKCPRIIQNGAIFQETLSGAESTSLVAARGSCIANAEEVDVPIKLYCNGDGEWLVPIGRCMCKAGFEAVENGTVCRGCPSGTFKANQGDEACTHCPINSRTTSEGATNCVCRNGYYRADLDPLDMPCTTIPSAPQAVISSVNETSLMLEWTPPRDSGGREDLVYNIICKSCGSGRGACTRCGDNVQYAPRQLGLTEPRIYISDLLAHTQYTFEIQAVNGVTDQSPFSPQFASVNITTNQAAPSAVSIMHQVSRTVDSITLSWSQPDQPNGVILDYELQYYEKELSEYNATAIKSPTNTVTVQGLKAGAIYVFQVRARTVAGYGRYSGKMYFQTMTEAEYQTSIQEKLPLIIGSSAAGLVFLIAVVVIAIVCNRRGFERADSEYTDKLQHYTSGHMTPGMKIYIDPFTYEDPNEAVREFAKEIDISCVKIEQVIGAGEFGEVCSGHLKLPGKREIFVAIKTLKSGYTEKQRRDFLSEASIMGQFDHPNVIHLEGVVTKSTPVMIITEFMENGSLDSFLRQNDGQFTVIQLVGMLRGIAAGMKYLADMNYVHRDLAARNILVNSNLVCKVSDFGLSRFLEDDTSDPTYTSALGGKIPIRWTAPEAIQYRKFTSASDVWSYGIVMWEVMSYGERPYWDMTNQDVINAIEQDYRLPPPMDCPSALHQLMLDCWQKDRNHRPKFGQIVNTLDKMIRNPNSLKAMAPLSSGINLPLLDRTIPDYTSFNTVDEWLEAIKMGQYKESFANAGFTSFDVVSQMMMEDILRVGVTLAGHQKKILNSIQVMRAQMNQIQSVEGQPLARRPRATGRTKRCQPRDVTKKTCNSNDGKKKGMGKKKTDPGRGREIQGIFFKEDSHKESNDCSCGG
Chain of Grb2 SH2 (P62993 whole entry, looked up): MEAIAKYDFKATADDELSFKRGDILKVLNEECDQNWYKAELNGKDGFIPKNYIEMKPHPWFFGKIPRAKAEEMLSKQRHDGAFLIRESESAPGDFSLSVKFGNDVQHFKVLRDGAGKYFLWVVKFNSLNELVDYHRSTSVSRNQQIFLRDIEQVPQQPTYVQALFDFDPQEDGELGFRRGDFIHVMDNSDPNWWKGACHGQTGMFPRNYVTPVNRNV
Chain of EPHB1 (P54762 whole entry, looked up): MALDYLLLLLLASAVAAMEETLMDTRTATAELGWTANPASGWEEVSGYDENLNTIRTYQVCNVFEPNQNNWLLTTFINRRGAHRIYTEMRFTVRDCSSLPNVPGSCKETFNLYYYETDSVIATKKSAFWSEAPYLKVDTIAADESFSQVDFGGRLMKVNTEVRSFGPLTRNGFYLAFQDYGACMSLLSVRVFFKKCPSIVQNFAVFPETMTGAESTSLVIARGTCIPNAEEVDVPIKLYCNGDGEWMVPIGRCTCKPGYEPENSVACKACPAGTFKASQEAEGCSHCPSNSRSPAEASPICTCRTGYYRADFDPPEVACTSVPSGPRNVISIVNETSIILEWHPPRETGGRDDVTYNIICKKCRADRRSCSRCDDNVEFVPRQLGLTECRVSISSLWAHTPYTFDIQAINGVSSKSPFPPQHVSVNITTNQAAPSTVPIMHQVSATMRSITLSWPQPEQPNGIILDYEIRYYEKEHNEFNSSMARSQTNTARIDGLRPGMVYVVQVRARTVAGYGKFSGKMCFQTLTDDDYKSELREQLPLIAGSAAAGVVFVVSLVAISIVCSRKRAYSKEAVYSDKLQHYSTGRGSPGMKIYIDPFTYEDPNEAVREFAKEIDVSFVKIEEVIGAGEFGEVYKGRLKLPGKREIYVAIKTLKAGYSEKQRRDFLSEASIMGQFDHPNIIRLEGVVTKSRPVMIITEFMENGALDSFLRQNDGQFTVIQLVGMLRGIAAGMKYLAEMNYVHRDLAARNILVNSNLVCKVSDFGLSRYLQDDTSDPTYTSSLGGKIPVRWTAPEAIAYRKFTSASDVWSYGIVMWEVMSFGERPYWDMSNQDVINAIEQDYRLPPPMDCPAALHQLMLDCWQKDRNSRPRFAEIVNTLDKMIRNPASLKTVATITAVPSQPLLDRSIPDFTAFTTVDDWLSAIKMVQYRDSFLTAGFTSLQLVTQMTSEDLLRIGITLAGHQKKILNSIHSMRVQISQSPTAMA
Chain of FGFR1 (P11362 whole entry, looked up): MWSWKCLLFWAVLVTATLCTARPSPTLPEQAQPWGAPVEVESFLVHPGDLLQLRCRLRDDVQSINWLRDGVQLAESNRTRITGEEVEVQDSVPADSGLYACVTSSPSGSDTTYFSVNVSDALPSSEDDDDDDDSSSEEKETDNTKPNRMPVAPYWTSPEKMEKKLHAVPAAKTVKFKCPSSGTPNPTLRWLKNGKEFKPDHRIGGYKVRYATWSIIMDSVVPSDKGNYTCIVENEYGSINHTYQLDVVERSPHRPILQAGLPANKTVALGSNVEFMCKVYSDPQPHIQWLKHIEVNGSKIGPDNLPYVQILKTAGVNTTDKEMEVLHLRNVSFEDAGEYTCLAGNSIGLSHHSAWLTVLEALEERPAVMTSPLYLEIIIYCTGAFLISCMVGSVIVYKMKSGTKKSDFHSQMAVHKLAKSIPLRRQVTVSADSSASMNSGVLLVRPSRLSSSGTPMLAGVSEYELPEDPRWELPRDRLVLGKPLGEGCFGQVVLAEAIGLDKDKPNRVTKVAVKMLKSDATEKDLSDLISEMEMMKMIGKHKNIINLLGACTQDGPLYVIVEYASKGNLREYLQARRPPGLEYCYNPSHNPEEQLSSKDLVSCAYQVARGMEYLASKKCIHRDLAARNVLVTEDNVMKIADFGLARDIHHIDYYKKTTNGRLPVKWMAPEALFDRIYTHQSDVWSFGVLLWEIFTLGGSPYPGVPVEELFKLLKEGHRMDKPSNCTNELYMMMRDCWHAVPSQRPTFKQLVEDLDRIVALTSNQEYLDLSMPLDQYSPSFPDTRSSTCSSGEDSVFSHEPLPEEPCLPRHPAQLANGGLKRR

| Sequence | SH2 binding enrichment (SHP2-C SH2) | SH2 binding enrichment (Grb2 SH2) | SH2 binding enrichment (c-Src SH2) | phosphorylation enrichment (Fes) | phosphorylation enrichment (FGFR1) | phosphorylation enrichment (AncSZ) | phosphorylation enrichment (FGFR3) | phosphorylation enrichment (EPHB1) | phosphorylation enrichment (c-Src) | phosphorylation enrichment (MERTK) | phosphorylation enrichment (EPHB2) | phosphorylation enrichment (Hck) | phosphorylation enrichment (c-Abl (mouse)) | phosphorylation enrichment (Fer (mouse)) | phosphorylation enrichment (Fyn) | phosphorylation enrichment (Jak2) |
| --- | --- | --- | --- | --- | --- | --- | --- | --- | --- | --- | --- | --- | --- | --- | --- | --- |
| SVTCTHSPALN [TP53_Y126_Y126H] | 0.389 | 0.742 | 0.444 | 1.01 | 0.404 | 0.862 | 0.612 | 0.498 | 0.459 | 0.4 | 0.548 | 0.529 | 0.818 | 0.542 | 0.52 | 0.759 |
| SVTCTYSPALS [TP53_Y126_N131S] | 0.44 | 0.844 | 0.468 | 1.63 | 0.396 | 2.15 | 0.697 | 0.673 | 0.719 | 0.42 | 0.645 | 0.553 | 1.42 | 0.508 | 0.424 | 1.42 |
| SVTCTYSPDLN [TP53_Y126_A129D] | 0.856 | 0.89 | 0.471 | 1.71 | 0.533 | 1.5 | 0.985 | 0.757 | 0.563 | 0.437 | 0.71 | 0.583 | 0.915 | 0.629 | 0.502 | 1.31 |
| SVTCTYSSALN [TP53_Y126_P128S] | 0.732 | 0.78 | 0.537 | 1 | 0.483 | 1 | 0.726 | 0.601 | 0.64 | 0.458 | 0.576 | 0.689 | 0.728 | 0.534 | 0.6 | 0.909 |
| SVVVPHEPPEV [TP53_Y220_Y220H] | 0.902 | 0.956 | 0.581 | 0.949 | 0.53 | 0.763 | 0.696 | 0.51 | 0.396 | 0.41 | 0.46 | 0.46 | 0.703 | 0.538 | 0.466 | 0.755 |
| SWVVPYEPPEV [TP53_Y220_V216W] | 0.639 | 1.05 | 1.33 | 1.23 | 0.599 | 1.44 | 0.861 | 0.553 | 0.411 | 0.39 | 0.631 | 0.542 | 0.851 | 0.577 | 0.463 | 0.957 |
| SYVVRYNQPRV [GRIN2D_Y736_M733V] | 1.09 | 1.05 | 1.31 | 0.891 | 0.452 | 0.843 | 0.588 | 0.478 | 0.405 | 0.375 | 0.478 | 0.475 | 0.717 | 0.419 | 0.433 | 0.725 |
| TARREYMHSPS [CPOX_Y429_W427R] | 0.647 | 0.859 | 0.647 | 0.656 | 0.349 | 0.489 | 0.355 | 0.345 | 0.432 | 0.43 | 0.449 | 0.471 | 0.507 | 0.396 | 0.63 | 0.468 |
| TCFDKYTGSTY [FN1_Y101_N104S] | 0.691 | 0.997 | 0.51 | 0.737 | 0.556 | 0.843 | 0.534 | 0.442 | 0.5 | 0.399 | 0.556 | 0.652 | 0.579 | 0.418 | 0.469 | 0.747 |
| TDKLFYIYTSG [SLC27A4_Y243] | 1.75 | 0.677 | 0.443 | 1.94 | 0.565 | 1.5 | 0.811 | 0.701 | 0.542 | 0.589 | 0.682 | 0.522 | 1.18 | 0.517 | 0.48 | 1.48 |
| TEQDPYNNIVR [MMUT_Y364] | 0.649 | 0.857 | 1.28 | 0.978 | 0.466 | 1.01 | 0.601 | 0.5 | 0.581 | 0.451 | 0.499 | 0.555 | 0.582 | 0.45 | 0.545 | 0.881 |
| TGDFGYRTPGF [TNS2_Y668_A670T_YF] | 0.709 | 0.765 | 0.529 | 0.632 | 0.438 | 0.523 | 0.517 | 0.48 | 0.413 | 0.429 | 0.419 | 0.401 | 0.706 | 0.399 | 0.457 | 0.526 |
| TGDRPYVCPFD [YY1_Y383] | 0.712 | 0.911 | 1.6 | 0.932 | 0.59 | 1.04 | 0.635 | 0.474 | 0.456 | 0.481 | 0.46 | 0.464 | 0.706 | 0.431 | 0.509 | 0.653 |
| TGEKPYECVQC [ZNF24_Y335] | 1.06 | 0.81 | 3.11 | 0.7 | 0.501 | 0.755 | 0.531 | 0.514 | 0.501 | 0.509 | 0.507 | 0.521 | 0.519 | 1.87 | 0.515 | 0.664 |
| THEVRYISAGQ [SLCO4A1_Y77_V78I] | 0.65 | 0.726 | 0.495 | 0.705 | 0.361 | 0.683 | 0.53 | 0.426 | 0.418 | 0.408 | 0.396 | 0.416 | 0.838 | 0.379 | 0.391 | 0.669 |
| THEVRYVSAGQ [SLCO4A1_Y77] | 0.927 | 0.771 | 0.495 | 0.773 | 0.416 | 0.733 | 0.45 | 0.393 | 0.366 | 0.368 | 0.368 | 0.374 | 0.485 | 0.47 | 0.398 | 0.632 |
| TIMTDYNPNYC [ALK_Y1092] | 0.654 | 1.11 | 0.663 | 1.26 | 0.715 | 1.33 | 0.904 | 0.999 | 0.552 | 0.6 | 0.531 | 0.66 | 0.923 | 0.548 | 0.439 | 1.24 |
| TLNVRHESVQA [CEACAM7_Y236_Y236H] | 0.714 | 0.978 | 0.579 | 0.59 | 0.451 | 0.564 | 0.39 | 0.38 | 0.466 | 0.348 | 0.44 | 0.366 | 0.415 | 0.374 | 0.378 | 0.831 |
| TLSGIYQFIIA [FOXL2_Y81_YF] | 1.13 | 1.49 | 1.24 | 3.16 | 10.4 | 1.81 | 7.18 | 14.2 | 5.96 | 10.1 | 9.15 | 8.44 | 2.71 | 15 | 6.83 | 1.2 |
| TNGFTYGSSHQ [MANEA_Y331] | 0.493 | 0.74 | 0.434 | 0.576 | 0.525 | 0.566 | 0.39 | 0.444 | 0.404 | 0.441 | 0.31 | 0.443 | 0.412 | 0.514 | 0.492 | 0.413 |
| TNYSLYLRSLE [MTM1_Y71_R69S] | 12.1 | 1.01 | 0.669 | 1.15 | 0.456 | 0.952 | 0.659 | 0.722 | 0.42 | 0.602 | 0.671 | 0.601 | 0.574 | 0.555 | 0.423 | 1.29 |
| TQNGVYSAANY [DDX5_Y535] | 0.536 | 0.842 | 0.838 | 0.699 | 0.454 | 0.69 | 0.514 | 1.26 | 6.11 | 4.8 | 1.85 | 8.68 | 1.04 | 1.87 | 7.45 | 0.5 |
| TQPSPYAVFRF [RPGRIP1_Y823_YF] | 1.1 | 1 | 0.696 | 0.805 | 0.893 | 0.952 | 0.8 | 2.6 | 7.72 | 9.69 | 0.922 | 8.6 | 24.8 | 9.31 | 10.7 | 0.824 |
| TRDVNYGWIIR [MT-CYB_Y75] | 1.28 | 1.22 | 0.55 | 0.999 | 0.344 | 0.997 | 0.654 | 0.542 | 0.423 | 0.756 | 0.91 | 0.422 | 0.595 | 0.443 | 0.475 | 0.949 |
| TRDVNYGWTIR [MT-CYB_Y75_I78T] | 1.02 | 1.29 | 0.515 | 0.969 | 0.46 | 1.39 | 0.636 | 0.544 | 0.492 | 0.495 | 0.648 | 0.478 | 0.534 | 0.588 | 0.441 | 0.834 |
| TRFDEYLEVTK [MAP1A_Y2217_H2214Y_YF] | 0.78 | 0.814 | 0.528 | 1.22 | 0.949 | 1.32 | 0.823 | 0.789 | 0.444 | 0.819 | 0.723 | 0.619 | 0.731 | 0.501 | 0.571 | 1.25 |
| TRTEAYAVSSF | 0.608 | 0.88 | 1.65 | 0.816 | 0.373 | 0.58 | 0.396 | 0.442 | 0.353 | 0.406 | 0.378 | 0.359 | 0.476 | 0.328 | 0.399 | 0.587 |
| TSESSYYKSLN [NGEF_Y288_A286S] | 0.64 | 0.892 | 0.65 | 0.817 | 0.64 | 0.76 | 0.651 | 0.55 | 0.518 | 0.564 | 0.668 | 0.496 | 0.499 | 0.482 | 0.469 | 0.771 |
| TSSAIYMNLAS [GATAD2B_Y317] | 1.46 | 4.48 | 1.4 | 1.01 | 3 | 0.949 | 1.94 | 8.76 | 6.07 | 8.39 | 3.51 | 6.95 | 3.29 | 3.71 | 6.11 | 0.997 |
